In patent US20150093398A1, “Methods and Compositions for Treating or Preventing Cancer” (MERCK SHARP & DOHME CORP., priority 2005, published 2015):

Assays:
[1] = test system: SJCRH30 rhabdomyosarcoma cells; assay: SJCRH30 rhabdomyosarcoma xenograft tumor growth in mice (05 IGFR-01, 19D12 and Cytoxan); assay type: in vivo, Athymic nude mice
Experimental: (§1) Athymic nude mice were inoculated with tumor cells in the right flank, subcutaneously, along with Matrigel (1:1 cells:gel). In these experiments, 5×10^6 cells/mouse in a 1:1 mix with regular matrigel were inoculated subcutaneously. Tumor size was measured with calipers and the data was entered into the labcat program. Mice were grouped with average size of 100 mm^3. Tumor size and body weight were measured twice weekly.
(§2) In these experiments, mice were dosed twice per week, intraperitoneally (i.p.) with antibody 19D12 and chemotherapeutic agents at the indicated frequency. Tumor size and mouse body weight was measured twice weekly after treatment.

[2] = test system: SK-N-FI neuroblastoma cells; assay: SK-N-FI neuroblastoma xenograft tumor growth in mice (04 IGFR-20); assay type: in vivo, Athymic nude mice
[3] = test system: SJSA-1 osteosarcoma cells; assay: SJSA-1 osteosarcoma xenograft model (05-IGFR-21), dosing from 15 days after inoculation; assay type: in vivo, female nude mouse (strain NU/NU)
Experimental: Xenograft tumor size was measured twice per week with a caliper and captured electronically by the LabCat program. […] For the experiments set forth in Table 9, dosing was initiated 15 days after inoculation. […] Xenograft tumor size was measured twice per week with a caliper and captured electronically by the LabCat program.

[4] = test system: SJSA-1 osteosarcoma cells; assay: SJSA-1 osteosarcoma xenograft model (05-IGFR-12), dosing from day 18 post inoculation; assay type: in vivo, female nude mouse (strain NU/NU)
Experimental: About 7 million SJSA-1 osteosarcoma cells were inoculated subcutaneously to the flank of each female nude mouse (strain NU/NU from Charles River, age ˜6 wks-old, average weight ˜20 gram). For the experiment set forth in Table 8, dosing was initiated on day 18 post inoculation, when the xenograft tumor reached an average size of about 100 mm^3. Anti-IGF1R antibody (19D12 Light chain F/Heavy chain A (as set forth above)) was given ip twice a week at the dose of either 0.02 mg, 0.1 and 0.5 mg per mouse, while cytotoxic Cytoxan (cyclophosphamide) was given ip twice per week at the dose of 100 mpk for a total of 3 injection during the course of the study. Xenograft tumor size was measured twice per week with a caliper and captured electronically by the LabCat program.

[5] = test system: SK-N-AS neuroblatoma cells; assay: SK-N-AS neuroblastoma xenograft tumor growth in mice (03 IGFR-09, 19D12 vs. Cytoxan); assay type: in vivo, Athymic nude mice
Experimental: as §1, §2

[6] = test system: Hs700T malignant pancreatic cells; assay: Hs700T pancreatic xenograft tumor growth in mice (04 IGFR-16, 19D12 and Gemzar combination);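 note: subcutaneous flank xenografts in athymic nude mice, treated once tumors averaged 100 mm^3, antibody given intraperitoneally twice weekly, tumor size measured by calipers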
Experimental: as §1, §2

B1: 19D12: anti-IGF1R antibody: light chain variable region amino acids 20-128 of SEQ ID NO: 8, heavy chain variable region amino acids 20-137 of SEQ ID NO: 10 (antibody, V domains shown)
VL: MSPSQLIGFLLLWVPASRGEIVLTQSPGTLSVSPGERATLSCRASQSIGSSLHWYQQKPGQAPRLLIKYASQSLSGIPDRFSGSGSGTDFTLTISRLEPEDFAVYYCHQSSRLPHTFGQGTKVEIKRT
VH: MEFGLSWVFLVAILKGVQCEVQLVQSGGGLVKPGGSLRLSCAASGFTFSSFAMHWVRQAPGKGLEWISVIDTRGATYYADSVKGRFTISRDNAKNSLYLQMNSLRAEDTAVYYCARLGNFYYGMDVWGQGTTVTVSS
modifications: variable regions only: LC 20-128, HC 20-137; constant regions lack entries
- Tumor Average Size ([1]; 0.02 mg 19D12, Day 0): 74 mm^3
- Tumor Average Size ([1]; 0.02 mg 19D12, Day 4): 144 mm^3
- Tumor Average Size ([1]; 0.02 mg 19D12, Day 7): 337 mm^3
- Tumor Average Size ([1]; 0.02 mg 19D12, Day 11): 534 mm^3
- Tumor Average Size ([1]; 0.02 mg 19D12, Day 14): 714 mm^3
- Tumor Average Size ([1]; 0.02 mg 19D12, Day 18): 926 mm^3
- Tumor Average Size ([1]; 0.1 mg 19D12, Day 0): 74 mm^3
- Tumor Average Size ([1]; 0.1 mg 19D12, Day 4): 126 mm^3
- Tumor Average Size ([1]; 0.1 mg 19D12, Day 7): 232 mm^3
- Tumor Average Size ([1]; 0.1 mg 19D12, Day 11): 372 mm^3
- Tumor Average Size ([1]; 0.1 mg 19D12, Day 14): 520 mm^3
- Tumor Average Size ([1]; 0.1 mg 19D12, Day 18): 681 mm^3
- Tumor Average Size ([1]; 1 mg 19D12, Day 0): 75 mm^3
- Tumor Average Size ([1]; 1 mg 19D12, Day 4): 103 mm^3
- Tumor Average Size ([1]; 1 mg 19D12, Day 7): 183 mm^3
- Tumor Average Size ([1]; 1 mg 19D12, Day 11): 284 mm^3
- Tumor Average Size ([1]; 1 mg 19D12, Day 14): 442 mm^3
- Tumor Average Size ([1]; 1 mg 19D12, Day 18): 562 mm^3
- Tumor Average Size ([2]; 0.02 mg 19D12, Day 0): 150 mm^3
- Tumor Average Size ([2]; 0.02 mg 19D12, Day 5): 181 mm^3
- Tumor Average Size ([2]; 0.02 mg 19D12, Day 8): 204 mm^3
- Tumor Average Size ([2]; 0.02 mg 19D12, Day 12): 207 mm^3
- Tumor Average Size ([2]; 0.02 mg 19D12, Day 15): 217 mm^3
- Tumor Average Size ([2]; 0.02 mg 19D12, Day 19): 237 mm^3
- Tumor Average Size ([2]; 0.02 mg 19D12, Day 22): 290 mm^3
- Tumor Average Size ([2]; 0.1 mg 19D12, Day 0): 151 mm^3
- Tumor Average Size ([2]; 0.1 mg 19D12, Day 5): 164 mm^3
- Tumor Average Size ([2]; 0.1 mg 19D12, Day 8): 146 mm^3
- Tumor Average Size ([2]; 0.1 mg 19D12, Day 12): 154 mm^3
- Tumor Average Size ([2]; 0.1 mg 19D12, Day 15): 141 mm^3
- Tumor Average Size ([2]; 0.1 mg 19D12, Day 19): 154 mm^3
- Tumor Average Size ([2]; 0.1 mg 19D12, Day 22): 170 mm^3
- Tumor Average Size ([2]; 1 mg 19D12, Day 0): 155 mm^3
- Tumor Average Size ([2]; 1 mg 19D12, Day 5): 161 mm^3
- Tumor Average Size ([2]; 1 mg 19D12, Day 8): 128 mm^3
- Tumor Average Size ([2]; 1 mg 19D12, Day 12): 126 mm^3
- Tumor Average Size ([2]; 1 mg 19D12, Day 15): 118 mm^3
- Tumor Average Size ([2]; 1 mg 19D12, Day 19): 117 mm^3
- Tumor Average Size ([2]; 1 mg 19D12, Day 22): 122 mm^3
- Mean Tumor size ([3]; 0.04 mg 19D12, Day 0): 142 mm3
- Mean Tumor size ([3]; 0.04 mg 19D12, Day 4): 153 mm3
- Mean Tumor size ([3]; 0.04 mg 19D12, Day 7): 222 mm3
- Mean Tumor size ([3]; 0.04 mg 19D12, Day 11): 306 mm3
- Mean Tumor size ([3]; 0.04 mg 19D12, Day 14): 431 mm3
- Mean Tumor size ([3]; 0.1 mg 19D12, Day 0): 145 mm3
- Mean Tumor size ([3]; 0.1 mg 19D12, Day 4): 147 mm3
- Mean Tumor size ([3]; 0.1 mg 19D12, Day 7): 151 mm3
- Mean Tumor size ([3]; 0.1 mg 19D12, Day 11): 212 mm3
- Mean Tumor size ([3]; 0.1 mg 19D12, Day 14): 251 mm3
- regression of tumor volume (in words) ([3]; ip twice a week, 0.04 or 0.1 mg per mouse, with Cytoxan 50 or 100 mpk once a week, summary of Table 9): anti-IGF1R-dependent regression of tumor volume
- Mean Tumor size ([4]; 0.02 mg 19D12, Day 0): 98 mm3
- Mean Tumor size ([4]; 0.02 mg 19D12, Day 3): 121 mm3
- Mean Tumor size ([4]; 0.02 mg 19D12, Day 7): 197 mm3
- Mean Tumor size ([4]; 0.02 mg 19D12, Day 10): 272 mm3
- Mean Tumor size ([4]; 0.02 mg 19D12, Day 14): 423 mm3
- Mean Tumor size ([4]; 0.02 mg 19D12, Day 17): 675 mm3
- Mean Tumor size ([4]; 0.1 mg 19D12, Day 0): 96 mm3
- Mean Tumor size ([4]; 0.1 mg 19D12, Day 3): 121 mm3
- Mean Tumor size ([4]; 0.1 mg 19D12, Day 7): 144 mm3
- Mean Tumor size ([4]; 0.1 mg 19D12, Day 10): 231 mm3
- Mean Tumor size ([4]; 0.1 mg 19D12, Day 14): 378 mm3
- Mean Tumor size ([4]; 0.1 mg 19D12, Day 17): 431 mm3
- Mean Tumor size ([4]; 0.1 mg 19D12, Day 21): 1037 mm3
- Mean Tumor size ([4]; 0.5 mg 19D12, Day 0): 96 mm3
- Mean Tumor size ([4]; 0.5 mg 19D12, Day 3): 103 mm3
- Mean Tumor size ([4]; 0.5 mg 19D12, Day 7): 122 mm3
- Mean Tumor size ([4]; 0.5 mg 19D12, Day 10): 115 mm3
- Mean Tumor size ([4]; 0.5 mg 19D12, Day 14): 282 mm3
- Mean Tumor size ([4]; 0.5 mg 19D12, Day 17): 435 mm3
- Mean Tumor size ([4]; 0.5 mg 19D12, Day 21): 890 mm3
- growth inhibition of the osteosarcoma tumor (in words) ([4]; ip twice a week, 0.02, 0.1 or 0.5 mg per mouse, summary of Table 8): marked anti-IGF1R-dependent growth inhibition
- Tumor Average Size ([5]; 0.004 mg 19D12/IgG1, Day 4): 335 mm^3
- Tumor Average Size ([5]; 0.004 mg 19D12/IgG1, Day 7): 568 mm^3
- Tumor Average Size ([5]; 0.004 mg 19D12/IgG1, Day 11): 1314 mm^3
- Tumor Average Size ([5]; 0.004 mg 19D12/IgG1, Day -1): 142 mm^3
- Tumor Average Size ([5]; 0.02 mg 19D12/IgG1, Day 4): 231 mm^3
- Tumor Average Size ([5]; 0.02 mg 19D12/IgG1, Day 7): 307 mm^3
- Tumor Average Size ([5]; 0.02 mg 19D12/IgG1, Day 11): 547 mm^3
- Tumor Average Size ([5]; 0.02 mg 19D12/IgG1, Day -1): 137 mm^3
- Tumor Average Size ([5]; 0.1 mg 19D12/IgG1, Day 4): 249 mm^3
- Tumor Average Size ([5]; 0.1 mg 19D12/IgG1, Day 7): 321 mm^3
- Tumor Average Size ([5]; 0.1 mg 19D12/IgG1, Day 11): 615 mm^3
- Tumor Average Size ([5]; 0.1 mg 19D12/IgG1, Day -1): 135 mm^3
- Tumor Average Size ([5]; 0.5 mg 19D12/IgG1, Day 4): 205 mm^3
- Tumor Average Size ([5]; 0.5 mg 19D12/IgG1, Day 7): 273 mm^3
- Tumor Average Size ([5]; 0.5 mg 19D12/IgG1, Day 11): 492 mm^3
- Tumor Average Size ([5]; 0.5 mg 19D12/IgG1, Day -1): 123 mm^3
- Tumor Average Size ([6]; 0.1 mg 19D12, Day 0): 74 mm^3
- Tumor Average Size ([6]; 0.1 mg 19D12, Day 4): 86 mm^3
- Tumor Average Size ([6]; 0.1 mg 19D12, Day 7): 89 mm^3
- Tumor Average Size ([6]; 0.1 mg 19D12, Day 11): 98 mm^3
- Tumor Average Size ([6]; 0.1 mg 19D12, Day 14): 123 mm^3
- Tumor Average Size ([6]; 0.1 mg 19D12, Day 18): 165 mm^3
- Tumor Average Size ([6]; 0.1 mg 19D12, Day 21): 187 mm^3
- Tumor Average Size ([6]; 0.1 mg 19D12, Day 26): 272 mm^3
- Tumor Average Size ([6]; 0.1 mg 19D12, Day 29): 335 mm^3
- Tumor Average Size ([6]; 0.1 mg 19D12, Day 33): 371 mm^3
- Tumor Average Size ([6]; 0.1 mg 19D12, Day 36): 415 mm^3
- Tumor Average Size ([6]; 0.5 mg 19D12, Day 0): 75 mm^3
- Tumor Average Size ([6]; 0.5 mg 19D12, Day 4): 70 mm^3
- Tumor Average Size ([6]; 0.5 mg 19D12, Day 7): 69 mm^3
- Tumor Average Size ([6]; 0.5 mg 19D12, Day 11): 71 mm^3
- Tumor Average Size ([6]; 0.5 mg 19D12, Day 14): 93 mm^3
- Tumor Average Size ([6]; 0.5 mg 19D12, Day 18): 115 mm^3
- Tumor Average Size ([6]; 0.5 mg 19D12, Day 21): 137 mm^3
- Tumor Average Size ([6]; 0.5 mg 19D12, Day 26): 239 mm^3
- Tumor Average Size ([6]; 0.5 mg 19D12, Day 29): 249 mm^3
- Tumor Average Size ([6]; 0.5 mg 19D12, Day 33): 282 mm^3
- Tumor Average Size ([6]; 0.5 mg 19D12, Day 36): 334 mm^3
- Tumor Average Size ([6]; 1 mg 19D12, Day 0): 77 mm^3
- Tumor Average Size ([6]; 1 mg 19D12, Day 4): 80 mm^3
- Tumor Average Size ([6]; 1 mg 19D12, Day 7): 85 mm^3
- Tumor Average Size ([6]; 1 mg 19D12, Day 11): 81 mm^3
- Tumor Average Size ([6]; 1 mg 19D12, Day 14): 99 mm^3
- Tumor Average Size ([6]; 1 mg 19D12, Day 18): 128 mm^3
- Tumor Average Size ([6]; 1 mg 19D12, Day 21): 152 mm^3
- Tumor Average Size ([6]; 1 mg 19D12, Day 26): 231 mm^3
- Tumor Average Size ([6]; 1 mg 19D12, Day 29): 280 mm^3
- Tumor Average Size ([6]; 1 mg 19D12, Day 33): 312 mm^3
- Tumor Average Size ([6]; 1 mg 19D12, Day 36): 305 mm^3
